What was measured:
[1] = High-pressure REES measurements; assay type: physicochemical; settings: buffered solution, any pressure
Text: The CSM value is rather larger than reported for the denaturation study above (FIGS. 3A and 3B) and this is due to a different spectral window used to calculate the CSM for the pressure studies. This was necessary due to the optical setup of the pressure cell. […] Fitting the REES data to Eq 4 gives the pressure dependence of A, shown in FIG. 4D as the change in the fraction of A across the pressure range. […] The pressure dependence data can be adequately fit to a simple, phenomenological model that implies a single transition between two states with changing hydrostatic pressure as used previously:
Where Rp=83.13 cm3 mol^−1 bar K^−1 when the pressure, p, is measured in bar, K0 is the equilibrium constant for the change in the relative population of the ith conformational state represented by the magnitude of A from Eq 4, extrapolated to 0 bar and ΔVA is the apparent difference in the volume associated with this equilibrium transition.
The difference in sign is simply attributable to relative change in direction of the specific to signal. What is important is that the magnitude of ΔV is much larger for the REES effect compared to W6 emission. Indeed, this magnitude of pressure dependence is more consistent with global metrics of NEMO conformational change previously measured using the pressure dependence of 8-anilino naphthalene sulfonate (ANS) emission. The REES signal may therefore be reflective of the broader equilibrium of NEMO conformational states at sites distal to W6. […] The key finding from the pressure data in the present context is that the REES effect itself is pressure-dependent with the magnitude of A increasing with pressure.
An ISS high-pressure cell (ISS, Champaign, UL, USA), fitted with a custom fiber optic mounting to the fluorimeter and connected to a circulating water bath for temperature regulation was used to record all high-pressure measurements.
Where fi is the measured fluorescence intensity and λem is the emission wavelength. The importance of using a consistent wavelength range when reporting CSM data is stressed, as the magnitude will be dependent on the wavelength range chosen.

NEMO = biological target: T1, NEMO (Homo sapiens, UniProt Q9Y6K9); assay: REES of NEMO W6 on ligand binding (peptides, poly-ubiquitin); settings: for R (fit to Eq 1), relative / A (REES magnitude, fit to Eq 2): relative to NEMO alone, binding partners; for A (REES magnitude, fit to Eq 2): peptides 1 mM, poly-ubiquitin 1 μM
T1 construct: Full length human NEMO was expressed and purified essentially as described previously [23]; made in house
T1 sequence (Q9Y6K9 whole entry): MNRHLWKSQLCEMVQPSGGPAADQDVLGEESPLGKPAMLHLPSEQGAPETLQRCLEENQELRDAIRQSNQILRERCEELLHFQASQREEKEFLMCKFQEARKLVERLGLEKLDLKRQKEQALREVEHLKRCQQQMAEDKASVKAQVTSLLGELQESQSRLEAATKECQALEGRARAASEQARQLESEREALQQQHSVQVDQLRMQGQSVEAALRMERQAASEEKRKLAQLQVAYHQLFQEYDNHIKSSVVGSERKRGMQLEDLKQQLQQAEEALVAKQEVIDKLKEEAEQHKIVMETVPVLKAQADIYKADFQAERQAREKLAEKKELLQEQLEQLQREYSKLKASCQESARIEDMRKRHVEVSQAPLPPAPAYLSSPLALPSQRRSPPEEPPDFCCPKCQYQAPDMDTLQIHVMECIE
Text: Having established that the REES effect, specifically the use of Eq 2, can be used as a proxy for the protein free energy landscape, how the NEMO REES signal varies upon ligand binding is considered. […] The REES data for NEMO ligand bound states are shown in FIGS. 6A and 6B with the solid lines representing the fit to Eq 2. The resulting extracted values of A from Eq 2 are given in Table 1 and also as an inset bar chart in FIG. 6. For clarity, the relative change in R and A compared to NEMO alone is reported, extracted from Eq 1 and 2, respectively.
The IKKβ peptide (termed the NEMO binding domain, NBD) contains two Trp residues and so is not suitable for the present study as the signal from the peptide would confound the analysis of the single NEMO Trp. […] From Table 1 and FIG. 5A there is a significant difference in the magnitude of A depending on the ligand bound form of NEMO. […] If the ligand binding data shown in FIG. 5A is fitted to the simple linear function described by Eq 1 a different trend is found. […] Instead the major difference to is in the curvature of the data and this is captured by the use of Eq 2.
NEMO comprises a specific domain that non-covalently binds poly-ubiquitin. […] Poly-ubiquitin is found as a range of chain-lengths in the cell and evidence has previously been provided from ANS binding studies that NEMO undergoes different conformational change depending on the chain-length of non-covalently bound poly-ubiquitin [23]. The REES effect on NEMO W6 is explored in the presence of both short (4-mer; Ub4) and long (10-mer; Ub10) poly-ubiquitin chains, as shown in FIG. 6B. From the resulting values of A, given in Table 1, Ub4 binding gives a decrease in A (A=0.77±0.05), but Ub10 gives an increase (A=1.23±0.1). […] The absolute magnitude of the REES difference is small.
Full length human NEMO was expressed and purified essentially as described previously. Purified protein was dialysed extensively into a buffer comprising 50 mM Tris-Cl pH 8.0, 50 mM NaCl and 5 mM DTT. All measurements were made in this buffer unless otherwise stated. IKK-β and IκBα peptides were commercially synthesised by Genscript, having a purity of >98% and are of the sequence […] and […], respectively. The IKK-β peptide was modified such that the two native Trp residues were replaced with Phe residues. M1-linked poly-ubiquitin was purchased from Viva Bioscience. Staphylococcus aureus immune modulator protein fragment Sbi-III-IV K173A was expressed and purified essentially as described previously. Protein concentration used was between 1 and 5 μM. Peptide concentrations were 1 mM and poly-ubiquitin concentrations were 1 μM.
All fluorescence measurements were performed using a Perkin Elmer LS50B Luminescence Spectrometer (Perkin Elmer, Waltham, Mass., USA) connected to a circulating water bath for temperature regulation (±1° C.). Samples were incubated for 5 minutes at the given conditions prior to recording measurements. Measurements were performed at 10° C., unless otherwise stated. Excitation and emission slit widths were 5 nm except for pressure experiments where they were 10 nm. The larger slit width was required due to the optical setup of the pressure cell to ensure a […] signal-to-noise for the W6 emission signal. For NEMO red edge excitation scans, tryptophan emission was monitored from 315 to 550 nm. […] For red edge excitation scans, tyrosine emission was monitored from 294 to 400 nm, with the excitation wavelength set at 274 nm. […]

[2] = REES of NEMO W6 Trp emission: native, denatured, crowded; assay type: physicochemical; settings: for A (REES magnitude, fit to Eq 2) / R (fit to Eq 1), relative: relative to NEMO alone; for A (REES magnitude, fit to Eq 2) / R (fit to Eq 1), relative / R0: native; for A (REES magnitude, fit to Eq 2): denatured (6M guanidine), crowded (Sbi 20 mg/ml); for R (fit to Eq 1), relative / R0: denatured, crowded; for R0: y-intercept of Eq 2 fit
Experimental: Typically the magnitude of the steady-state REES phenomenon is reported as the simple difference in CSM or ΔλEm^max. From FIG. 1, it is observed that a significant red shift in the emission spectra, with an increase in CSM of 17.7 nm and an increase in ΔλEm^max of 15 nm from λex 292-310 nm. Essentially the data are treated by the linear function: CSM=Rλex+CSM0 Eq 1.
Where R is the REES magnitude expressed as the change in CSM per nm of the excitation wavelength, λex.
The REES data in FIG. 2 can be best represented by a Gaussian probability distribution of the form:
Where A is the area, w is the full width at half-maximal (fwhm), m is the mid-point and R0 is the y-intercept and m=λREES^max, where λREES^max is the excitation wavelength that gives the largest change in the emission peak wavelength. The data in FIG. 2 are fit to Eq 2 and illustrate the low energy excitation at the red edge of the protein absorption spectrum. The fit of Eq 2 to the experimental data is excellent and captures the expected relationship described above.
In this case, the solvent relaxation will be very rapid and no REES effect observed, effectively because there is one discrete solvation state (fully solvated). NEMO is incubated in 6M guanidine to denature the protein and the corresponding change in the center of spectral mass (CSM) versus λex is shown in FIG. 3. The use of CSM is favoured instead of the magnitude of ΔλEm^max as this metric gives a more robust REES signal and the magnitude of may be highly error prone. However the results using ΔλEm^max are essentially the same. A decrease and red-shift in Trp emission is typically grossly correlated with denaturation of proteins. […] Note that this is not the REES effect but reflective of the solvent exposure of NEMO W6 on denaturation. […] Fitting to Eq 2 also gives a large decrease in the REES effect, A=0.37±0.4. The relative change in the REES effect is similar using either approach and this indicates strongly that a fitting approach using Eq 2 is robust.
Macromolecular crowding is a key feature of the intracellular milieu arising from the very high concentrations of other species in the cytosol. Crowding reduces the available solvent for other molecules in solution through the excluded volume effect, which effectively increase the concentration of, for example, protein and restricts the accessible conformational states through hard-core repulsions between the crowding agent and the protein. Macromolecular crowding can alter protein conformation, typically inducing folding and stabilization. Crowding therefore potentially provides a means to explore the contrasting physical effect of denaturation on the REES effect, where the protein is more folded/stabilized. A protein has been used as the crowding agent, Sbi (reported above), instead of a synthetic crowding agent since protein is much more consistent with the intracellular environment. […] Incubating NEMO with a high concentration of Sbi (20 mg/ml) gives a dramatic change to the both the absolute Trp emission and also the REES effect as shown in FIG. 3. […] Intriguingly, the REES effect is much larger in the crowded environment giving a relative increase in A of 2.24±0.51. […] This is consistent with the putative molecular model of NEMO activity that is based on allosterically regulated NEMO conformational change. Below, the potential mechanistic role of an increased number of available conformational states with respect to ligand interactions is described.
Full length human NEMO was expressed and purified essentially as described previously. Purified protein was dialysed extensively into a buffer comprising 50 mM Tris-Cl pH 8.0, 50 mM NaCl and 5 mM DTT. All measurements were made in this buffer unless otherwise stated. IKK-β and IκBα peptides were commercially synthesised by Genscript, having a purity of >98% and are of the sequence […] and […], respectively. […]

[3] = QUBES of mAb unfolding in urea; assay type: physicochemical
Experimental: Changes in protein structure are accompanied by a change in the equilibrium of conformational states. It has been previously found with a model system, a ‘hub’ protein (described above), that by quantitating the curvature in REES data it is possible to capture information on unfolded states and ligand induced conformational change. It was explored whether the sensitive detection of differences in REES data could be useful for detecting subtle changes in protein structure in mAbs. It is tested whether the QUBES data can be used to identify unfolding and aggregation of the mAbs since these are key issues facing the development of biopharmaceuticals. […] The formation of soluble aggregates is monitored in the thermally denatured mAbs by dynamic light scattering (DLS), shown in FIG. 19.
The observed variance in the QUBES values for the denatured mAbs (FIG. 14A) may reflect the differing extent of unfolding or aggregation for each of the samples and the specific nature of the unfolded or aggregated states. […] The data therefore illustrate that these metrics ignore early stage changes to protein structure that are not captured by simple steady-state fluorescence emission measurements.
All fluorescence measurements were performed using a Perkin Elmer LS50B Luminescence Spectrometer (Perkin Elmer, Waltham, Mass., USA) connected to a circulating water bath for temperature regulation (±1° C.). […]

## N[C@@H](Cc1c[nH]c2ccccc12)C(=O)O [free Trp, tryptophan, reference compound]
[1]
  REES effect under pressure (in words): No REES effect is observed

## IκBα peptide: peptide mimic of IκBα, sequence DDRHDSGLDSMKD
NEMO
  R (fit to Eq 1), relative: 1.35±0.1
  A (REES magnitude, fit to Eq 2): 0.85±0.04

## NBD-Phe: IKK-β peptide (NEMO binding domain), two Trp replaced with Phe, sequence TALDFSFLQTE
NEMO
  decrease in W6 emission on binding: ~50%
  R (fit to Eq 1), relative: 0.98±0.1
  A (REES magnitude, fit to Eq 2): 1.33±0.3

## NEMO + Sbi: NEMO incubated with a high concentration of Sbi (20 mg/ml) as crowding agent
[2]; Sbi 20 mg/ml
  Trp emission intensity compared to NEMO in the absence of Sbi: ~1.4 times
[2]
  A (REES magnitude, fit to Eq 2): 2.24±0.51
  R (fit to Eq 1), relative: 1.07 ± 0.12
  R0: 360.5±0.45 nm

## NEMOdenat: NEMO incubated in 6M guanidine to denature the protein
[2]
  REES effect (in words): dramatically reduced REES effect
  A (REES magnitude, fit to Eq 2): 0.37 ± 0.4
  R (fit to Eq 1), relative: 0.21 ± 0.01
  R0: 375.0 ± 0.5 nm
[2]; absolute value
  R (fit to Eq 1), change in CSM per nm of λex: 0.22±0.02
[2]; listed as Denatured NEMO
  A (REES magnitude, fit to Eq 2): 0.37±0.4
  R (fit to Eq 1), relative: 0.23±0.1
  R0: 375±0.5 nm
[2]; λex 292-310 nm
  increase in CSM (red shift): 4 nm

## Tocilizumab: humanised therapeutic mAb
[3]
  urea concentration at which a significant increase in CSM0 is observed: 7 M
[3]; urea
  QUBES value shift on unfolding: larger R and smaller A value

Reference: patent US10900903B2, “Protein structure analysis based on red-edge excitation shift (REES) spectroscopy” (UNIVERSITY OF BATH, priority 2016, dated 2021)
